The results in this text go back to patent US20210363269A1 (ALX ONCOLOGY, published 2021).

The target of experiment [1] is T1, human SIRP-α v1 D1 domain (human, UniProt P78324 31-149).
T1 construct: also called human v1; human α v1
The experiment in a line: SPR, antibody immobilised on GLC chip.

Experiment [2] has as its target T2, cynomolgus SIRP-α D1 domain (SEQ ID NO:11) (cynomolgus, UniProt Q5TFQ8 30-148 (human entry), limits assumed).
T2 construct: also called cyno1
T2 chain: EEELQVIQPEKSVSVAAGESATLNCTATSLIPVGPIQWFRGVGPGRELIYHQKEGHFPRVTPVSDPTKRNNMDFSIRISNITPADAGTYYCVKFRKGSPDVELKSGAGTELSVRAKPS
The experiment in a line: SPR, antibody immobilised on GLC chip. A general note: In SPR one partner is held on a chip, and binding of the other changes the refractive index at the surface.

The target of experiment [3] is T3, human SIRP-α v2 D1 domain (human).
T3 construct: also called human v2; human α v2
The experiment in a line: SPR, antibody immobilised on GLC chip; Table M cell, 119 Mut/mut on human v2. The method in brief: (§1)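 Antibodies purified with Protein A were amine-coupled (~1000 RU) to a ProteOn XPR36 GLC chip, and SIRP analytes were injected one-shot at 100, 33, 11, 3.7, 1.2 and 0 nM in PBS pH 7.4 with 0.01% Tween-20 at 25° C. Each run used 90 s association at 100 μL/min followed by 1200 s dissociation. KD was derived as kd/ka from a global Langmuir fit to double-referenced sensorgrams.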

The target in experiment [4] is T4, human SIRP-α v2 D1 domain (human).
T4 construct: biotinylated and captured on avidin in the ELISA; also called human v2
The experiment is described as follows: SPR, antibody immobilised on GLC chip; sentence of the text that cites Table M. An outline of the steps: as §1

For experiment [5], the target named is T5, human SIRP-α v1 D1 domain (human, UniProt P78324 31-149).
T5 construct: biotinylated and captured on avidin in the ELISA; also called human v1
The experiment is described as above. The method in brief: as §1

The target in experiment [6] is T6, NOD mouse SIRP-α D1 domain (mouse (NOD strain)).
T6 chain: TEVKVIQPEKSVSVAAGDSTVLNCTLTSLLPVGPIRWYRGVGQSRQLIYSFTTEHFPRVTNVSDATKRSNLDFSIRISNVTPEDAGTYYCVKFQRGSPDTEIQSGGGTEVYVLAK
The experiment is described as follows: SPR, antibody immobilised on GLC chip.

Experiment [7] deals with T1, human SIRP-α v1 D1 domain. The experiment is described as follows: SPR, antibody immobilised on GLC chip. This is another data set of the same source.
For experiment [8], the target named is T7, C57BL/6 mouse SIRP-α D1 domain (mouse (C57BL/6 strain), UniProt P97797 32-148).
T7 sequence: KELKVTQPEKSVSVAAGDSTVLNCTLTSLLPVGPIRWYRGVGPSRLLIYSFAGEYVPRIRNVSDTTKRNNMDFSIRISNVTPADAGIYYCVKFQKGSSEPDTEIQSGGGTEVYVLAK
The experiment is described as follows: SPR, antibody immobilised on GLC chip.

Experiment [9] deals with T3, human SIRP-α v2 D1 domain. The experiment is described as follows: SPR, antibody immobilised on GLC chip.
The target in experiment [10] is T2, cynomolgus SIRP-α D1 domain (SEQ ID …). The experiment in a line: SPR, antibody immobilised on GLC chip.
For experiment [11], the target named is T8, human SIRPγ isoform 1 (human, UniProt Q9P1W8 29-147).
T8 construct: also called sirpg; sirp-g
The experiment in a line: SPR, antibody immobilised on GLC chip.

Experiment [12] addresses T9, BALB/c mouse SIRP-α D1 domain (mouse (BALB/c strain)).
T9 chain: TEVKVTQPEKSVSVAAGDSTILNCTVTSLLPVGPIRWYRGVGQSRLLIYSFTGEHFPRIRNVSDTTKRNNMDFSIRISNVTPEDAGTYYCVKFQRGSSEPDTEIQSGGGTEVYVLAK
The experiment is described as follows: SPR, antibody immobilised on GLC chip.

In experiment [13] the target is T4, human SIRP-α v2 D1 domain. The experiment in a line: ELISA, target coated on the plate, scFv-Fc titrated from 0.008 to about 1 µg/ml, OD 405. The procedure: (§2) ELISA assays were carried out to screen binding of antibody clones to SIRP analytes and SIRP-α:CD47 complex. […] Plates were blocked with PBS™ (Phosphate Buffered Saline pH 7.4, 0.05% Tween®20 polysorbate, 3% milk), 50 ul of supernatant containing the secreted scFv-Fc are added for 1 hr at room temp. Plates were washed with PBST. 50 ul of anti-hFc-HRP (1:5000 Rockland 609-4303) added for 1 hr at room temp. Plates were washed with PBST. TMB was developed for 5 min and stopped with 1N HCl. ELISA results were read using BioTek Synergy H1 Hybrid Reader. The corresponding proteins used for the assay and described here are: human SIRPα V1 (SEQ ID NO: 5); human SIRPα V2 (SEQ ID NO:6); cynomolgus SIRPα (SEQ ID NO:11); mouse NOD SIRPα (SEQ ID NO: 8); human SIRPγ (SEQ ID NO: 15); CD47 (SEQ ID NO: 16); high affinity SIRPα V1 (SEQ ID NO: 42); high affinity SIRPα V2 (SEQ ID NO:17).
(ELISA stands for enzyme-linked immunosorbent assay.)

For experiment [14], the target named is T10, NOD mouse SIRP-α D1 domain (mouse (NOD strain)).
T10 construct: also called mouse NOD SIRPα
T10 chain: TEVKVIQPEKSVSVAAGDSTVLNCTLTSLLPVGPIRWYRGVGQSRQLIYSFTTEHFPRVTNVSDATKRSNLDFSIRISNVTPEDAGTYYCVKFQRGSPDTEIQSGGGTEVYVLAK
Described as above. As to the method: as §2

The target in experiment [15] is T11, human SIRPγ isoform 1 (human, UniProt Q9P1W8 29-147).
T11 construct: also called human SIRP-γ v1; sirpg
The description is as above. The procedure: as §2

The next experiment has as its target T12, human SIRP-α v2 (human).
T12 construct: also called Human v2; Human V2
The experiment in a line: SPR. The method in brief: (§3)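 Apparent association and dissociation rate constants, and KD as kd/ka, were obtained by global fitting of double-referenced data to a simple Langmuir model. Measurements used a ProteOn XPR36 biosensor at 25° C in PBS pH 7.4 with 0.01% Tween-20, with SIRP analytes injected in one-shot kinetic mode at nominal concentrations from A280 absorbance. The purified antibodies were either amine-coupled to a GLC chip or held on an NLC chip by biotinylated Protein A.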

Another experiment has as its target T13, human SIRP-α v1 (human, UniProt P78324 31-149).
T13 construct: also called Human v1; Human V1
The experiment is described as follows: SPR; fitted KD column of Table P. An outline of the steps:
as §3

Experiment [16] has as its target T14, human SIRPβ isoform 1 (human, UniProt O00241 30-148).
T14 construct: also called Beta; Human SIRPb
The experiment is described as follows: SPR Koff +/-. An outline of the steps: as §3

Experiment [17] has as its target T6, NOD mouse SIRP-α D1 domain. The experiment in a line: SPR, Langmuir fit.
Experiment [18] concerns the target T15, human SIRPβ isoform 1 (human, UniProt O00241 30-148).
T15 construct: also called sirpb1; Sirpb1
The experiment in a line: SPR, Langmuir fit.

Experiment [19] deals with T1, human SIRP-α v1 D1 domain. The experiment in a line: SPR, Langmuir fit.
For experiment [20], the target named is T16, cynomolgus SIRP-α D1 domain (SEQ ID NO:12) (cynomolgus, UniProt Q5TFQ8 30-148 (human entry), limits assumed).
T16 construct: also called cyno2; Cyno2
T16 chain: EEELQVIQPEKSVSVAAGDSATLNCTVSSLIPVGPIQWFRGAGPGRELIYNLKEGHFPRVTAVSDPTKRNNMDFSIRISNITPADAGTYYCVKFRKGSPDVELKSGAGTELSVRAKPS
The experiment in a line: SPR, Langmuir fit.

For experiment [21], the target named is T7, C57BL/6 mouse SIRP-α D1 domain. The experiment is described as follows: SPR, Langmuir fit.
For experiment [22], the target named is T3, human SIRP-α v2 D1 domain. The experiment is described as follows: SPR, Langmuir fit.
Experiment [23] has as its target T2, cynomolgus SIRP-α D1 domain (SEQ ID …). The experiment is described as follows: SPR, Langmuir fit.
The next experiment concerns the target T17, human SIRPβ isoform 2 (human, UniProt Q5TFQ8 30-148).
T17 construct: also called Sirpb2; beta isoform 2
The experiment is described as follows: SPR, Langmuir fit.

Experiment [24] addresses T8, human SIRPγ isoform 1. The experiment is described as follows: SPR, Langmuir fit.
For experiment [25], the target named is T9, BALB/c mouse SIRP-α D1 domain. The experiment in a line: SPR, Langmuir fit.

By Kd is commonly meant the equilibrium constant for the complex coming apart. Higher therefore signals weaker binding.

T17 sequence (Q5TFQ8 30-148 limits assumed): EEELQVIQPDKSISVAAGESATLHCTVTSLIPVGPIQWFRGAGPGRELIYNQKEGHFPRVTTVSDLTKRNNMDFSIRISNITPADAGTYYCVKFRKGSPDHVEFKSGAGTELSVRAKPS
T13 sequence (P78324 31-149 limits assumed): as the sequence (Q5TFQ8 30-148 limits assumed) above, with I13V, S14L, S20T, H24R, V27A, S79G, H101D counted along it
T12 sequence (chain, as listed by the source limits assumed): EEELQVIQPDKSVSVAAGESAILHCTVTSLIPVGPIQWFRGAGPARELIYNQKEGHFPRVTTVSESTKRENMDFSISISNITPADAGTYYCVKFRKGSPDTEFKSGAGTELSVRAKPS

B1: antibody 119 variant Mut/mut (VL mut all / VH mut) (antibody, human IgG1, V domains shown)
VH: EVQLLESGGGVVQPGGSLRLSCAASGFSFSNFAVTWVRQAPGKGLEWVSTIGSGDTYYADSVKGRFTISRDNSKNTLYLQMNSLRAEDTAVYYCAKDSTVSWSGDFFDYWGQGTLVTVSS
VL: EIVLTQSPATLSVSPGERATLSCRASQNVKNDLAWYQQKPGQAPRLLIYAARIRETGIPARFSGSGSGTEFTLTISSLQSEDFAVYYCQQYYDWPPFTFGGGTKVEIK
notes: Human IgG1 with L234A/L235A/G237A/N297A; Labels are in the order VL/VH
In the case of B1, the Kd in experiment [1] amounted to 0.317 nM; in experiment [2], 0.195 nM; in [3] it was 0.0875 nM.

B2: 119 antibody variant with mutated heavy and light chains (antibody, human IgG1, V domains shown)
VH: EVQLLESGGGVVQPGGSLRLSCAASGFSFSNFAVTWVRQAPGKGLEWVSTIGSGDTYYADSVKGRFTISRDNSKNTLYLQMNSLRAEDTAVYYCAKDSTVSWSGDFFDYWGQGTLVTVSS
VL: EIVLTQSPATLSVSPGERATLSCRASQNVKNDLAWYQQKPGQAPRLLIYAARIRETGIPARFSGSGSGTEFTLTISSLQSEDFAVYYCQQYYDWPPFTFGGGTKVEIK
notes: human IgG1 with L234A, L235A, G237A, N297A
Take B2: the Kd in [4] came out at 0.0875 nM; in experiment [5], 0.317 nM.

B3: antibody 136 variant MutRv_I2T/mut_V34M (antibody, human IgG1, V domains shown)
VH: EVQLVESGGGVVQPGRSLRLSCAASGFTFSSYDMNWVRQAPGKGLEWVSLISGSGEIIYYADSVKGRFTISRDNSKNTLYLQMNSLRAEDTAVYYCAKENNRYRFFDDWGQGTLVTVSS
VL: ETVLTQSPGTLSLSPGERATLSCRASQSVYTYLAWYQQKPGQAPRLLIYGASSRATGIPDRFSGSGSGTEFTLTISSLQSEDFAVYYCQQYYDRPPLTFGGGTKVEIK
notes: Human IgG1 with L234A/L235A/G237A/N297A; Labels are light chain/heavy chain
Consider B3, for which the Kd in experiment [6] was found to be 0.596 nM; in [7], 0.551 nM; in experiment [8], 13.8 nM; in experiment [9], 1.74 nM; in experiment [10], 2.11 nM; with human SIRPγ isoform 1 [11], 33.5 nM. The Kd in experiment [12] worked out at 0.361 nM.

B4: S138 (scFv)
scFv: EIVLTQSPGTLSVSPGERVILTCRASQSVDTYNLAWYQQKPGQAPRLLIYDLSTRATGIPDRFSGSGSGTEFTLTINSLEPEDFAVYYCHQYYDWPPYTFGGGTKVEIKGQSSRSSGGGGSSGGGGSDVQLVESGGGVVRPGESLRLSCAASGFTFSNYAMNWVRQAPGEGLEWVSGISGRGGDTYYADSVKGRFTISRDNSKNTLYLQMNSLRAEDTAIYYCAKGTWNYGSFDYWGLGTLVTVSSSLDPKSSDKTDTCPPCPAPELLGGPSVFLFPPKPKDTLMISRTPEVTCVVVDVSHEDPEVKFNWYVDGV
notes: also called clone S138
As to B4, the binding result (in experiment [13]; in experiment [14]; in the experiment with human SIRPγ isoform 1 [15]) was “no binding (tested: about 1 µg/ml)” throughout.

B5: antibody 213 (antibody, V domains shown)
VH: DVQLVESGGGVVRPGESLRLSCEASGFTFRNYYMTWVRQAPGEGLEWVSTISDTGDTAYYADSVKGRFTISRDNSKNSLYLQMNSLRADDTAIYYCAKSWIWWTFFDYWGLGTLVTVSS
VL: ALTQPASVSANLGGTVEITCSGGNSNHYGWYQQKSPGSAPVTLIYADTNRPSNIPSRFSGSTSGSTTTLTITGVQAEDEAVYYCGGSSTGDGIFGAGTTLTVL
notes: also called S213
For the molecule B5, the Kd was 1.69 nM in the experiment with human SIRP-α v2 and 6.05 nM with human SIRP-α v1. Moreover, the binding result with human SIRPβ isoform 1 [16] is listed as “no binding”.

B6: AB3 (as in Table J1) (antibody, V domains shown)
VH: AVTLDESGGGLQTPGGALSLVCKASGFIFSDYGMNWVRQAPGKGLEFVAQITSGSRTYYGAAVKGRATISRDNRQSTVKLQLNNLRAEDTGIYFCARDFGSGVGSIDAWGNGTEVIVSS
VL: ALTQPASVSANLGGTVKITCSGSRGRYGWYQQRSPGSAPVTVIYRDNQRPSNIPSRFSSSTSGSTSTLTITGVQADDESVYFCGSYDGSIDIFGAGTTLTVL
notes: also called antibody 3
B6: the Kd turned out to be 1.63 nM in experiment [17]; 1.63 nM with human SIRPβ isoform 1 [18]; 0.162 nM in experiment [19]; 2.85 nM in experiment [20]; 3.65 nM in [21]; 0.0767 nM in [22]. The Kd turned out to be 2.29 nM in experiment [23], 0.0678 nM with human SIRPβ isoform 2, 83.6 nM with human SIRPγ isoform 1 [24] and 1.16 nM in experiment [25].
